The values below come from patent US20040191826A1.

Test [1] addresses DPPIV/V5/His (human) (UniProt P27487). Kind of test: cell-based or functional assay.
Test [2] deals with DPP8/V5/His (human) (UniProt Q6V1X1). Kind of test: cell-based or functional assay.
DPP8/V5/His (human), sequence (Q6V1X1 17-898): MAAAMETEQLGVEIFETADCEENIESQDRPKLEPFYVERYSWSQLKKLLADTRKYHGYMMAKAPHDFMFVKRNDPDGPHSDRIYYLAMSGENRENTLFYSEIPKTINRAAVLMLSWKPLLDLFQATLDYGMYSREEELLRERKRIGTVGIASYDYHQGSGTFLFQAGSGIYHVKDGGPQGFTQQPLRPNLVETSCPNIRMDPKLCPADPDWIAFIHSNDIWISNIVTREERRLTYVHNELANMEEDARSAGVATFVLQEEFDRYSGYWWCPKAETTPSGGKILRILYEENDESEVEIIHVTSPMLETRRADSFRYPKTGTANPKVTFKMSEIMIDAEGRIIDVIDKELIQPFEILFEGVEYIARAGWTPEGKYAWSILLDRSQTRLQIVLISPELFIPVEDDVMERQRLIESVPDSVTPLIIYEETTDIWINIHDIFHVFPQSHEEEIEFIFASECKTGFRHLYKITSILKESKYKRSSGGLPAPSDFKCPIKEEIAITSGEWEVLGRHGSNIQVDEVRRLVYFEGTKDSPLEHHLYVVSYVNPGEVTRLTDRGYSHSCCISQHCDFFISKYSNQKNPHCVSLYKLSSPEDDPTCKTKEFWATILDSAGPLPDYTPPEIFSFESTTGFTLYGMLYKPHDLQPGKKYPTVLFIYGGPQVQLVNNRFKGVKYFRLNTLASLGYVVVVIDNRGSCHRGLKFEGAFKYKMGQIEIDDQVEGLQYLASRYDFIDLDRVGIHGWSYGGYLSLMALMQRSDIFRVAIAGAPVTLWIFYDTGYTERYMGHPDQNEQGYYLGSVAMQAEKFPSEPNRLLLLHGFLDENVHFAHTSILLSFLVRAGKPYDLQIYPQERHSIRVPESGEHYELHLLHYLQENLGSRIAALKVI

DPPIV/V5/His (human), sequence (P27487 whole entry, form in doubt): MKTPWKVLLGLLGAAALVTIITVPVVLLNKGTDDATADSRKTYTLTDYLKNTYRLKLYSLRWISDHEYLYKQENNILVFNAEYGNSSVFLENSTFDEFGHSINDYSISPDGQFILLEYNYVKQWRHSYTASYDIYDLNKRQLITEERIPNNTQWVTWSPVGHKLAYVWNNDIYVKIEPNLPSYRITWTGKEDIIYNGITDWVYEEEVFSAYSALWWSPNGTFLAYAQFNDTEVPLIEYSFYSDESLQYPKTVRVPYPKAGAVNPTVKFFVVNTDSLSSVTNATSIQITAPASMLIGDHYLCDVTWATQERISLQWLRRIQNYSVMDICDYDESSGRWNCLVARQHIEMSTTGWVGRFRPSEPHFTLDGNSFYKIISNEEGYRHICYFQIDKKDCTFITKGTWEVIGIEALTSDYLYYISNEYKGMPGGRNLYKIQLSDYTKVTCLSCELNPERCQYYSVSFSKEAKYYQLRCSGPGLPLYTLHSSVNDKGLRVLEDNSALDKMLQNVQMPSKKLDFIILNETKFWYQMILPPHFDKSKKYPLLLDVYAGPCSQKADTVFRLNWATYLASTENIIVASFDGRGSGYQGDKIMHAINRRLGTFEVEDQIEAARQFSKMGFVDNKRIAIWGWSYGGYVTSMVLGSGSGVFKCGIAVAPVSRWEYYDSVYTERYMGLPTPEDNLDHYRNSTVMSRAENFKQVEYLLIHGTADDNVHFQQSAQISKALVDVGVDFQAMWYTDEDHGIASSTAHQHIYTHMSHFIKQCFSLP

Ala-Pro-Gly (peptide): in test [1], the Residual activity (% of control), H-Gly-Pro-pNA hydrolysis, peptide at 10 mM was 67 % of control. Also, the Residual activity (% of control), H-Ala-Pro-pNA hydrolysis, peptide at 10 mM in test [2] is 51 % of control.
